From patent US20090280535, “SUMO Fusion Protein Expression System for Producing Native Proteins” (Academia Sinica, published 2009)

The binders below were run against T1, RecA (Escherichia coli, UniProt P0A7G6 P0A7G6:2-353) (assay: competition; 80 uM oligo competes against 8 uM ds-PhiX174 in EMSA; no significant effect at 2, 4 or 8 uM). Details: tags: none (released from His6-Smt3-RecA by Ulp1 403-621 cleavage).
Procedure: (§1) The biological activities of the purified RecA protein was tested as follows. First, an electrophoretic mobility shift assay was performed to examine whether the RecA protein was capable of binding to DNA, following the method described in Chen et al., Proc. Natl. Acad Sci USA 101: 10572-10577 (2004). […] Six oligonucleotides, i.e., (CT)₂₀, (CA)₂₀, (GT)₂₀, (GA)₂₀, (AT)₂₀, and (CG)₂₀ described in Biet et al., Nucleic Acids Res 27:596-600 (1999), were used to determine the preference of the RecA protein for binding to double-strand (ds) or single-strand (ss) DNAs. 80 μM of each of the oligonucleotides was incubated with the RecA protein in the presence of circular ds-ΦX174 (8 μM) DNA and then a mobility shift assay was performed to examine the binding between the RecA protein and the ds- or ss-DNAs.

T1 sequence (P0A7G6 2-353, one chain of several): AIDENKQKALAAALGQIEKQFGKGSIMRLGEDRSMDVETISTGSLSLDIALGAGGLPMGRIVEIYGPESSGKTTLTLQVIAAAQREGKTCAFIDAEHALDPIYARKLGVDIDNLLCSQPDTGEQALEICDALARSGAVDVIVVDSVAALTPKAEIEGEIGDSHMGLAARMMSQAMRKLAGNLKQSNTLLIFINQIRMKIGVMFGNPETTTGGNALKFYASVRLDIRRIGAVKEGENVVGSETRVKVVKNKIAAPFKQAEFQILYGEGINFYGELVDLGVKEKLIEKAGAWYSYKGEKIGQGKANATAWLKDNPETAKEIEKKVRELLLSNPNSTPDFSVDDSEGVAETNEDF

Binding result, binds:
CTCTCTCTCTCTCTCTCTCTCTCTCTCTCTCTCTCTCTCT (ssDNA) [(CT)20]

The binders below were run against T1, RecA (assay: competition; 80 uM oligo competes against 8 uM ds-PhiX174 in EMSA). Details: tags: none (released from His6-Smt3-RecA by Ulp1 403-621 cleavage).
Procedure: as §1

Binding result, binds:
CGCGCGCGCGCGCGCGCGCGCGCGCGCGCGCGCGCGCGCG (ssDNA) [(CG)20], GTGTGTGTGTGTGTGTGTGTGTGTGTGTGTGTGTGTGTGT (ssDNA) [(GT)20], GAGAGAGAGAGAGAGAGAGAGAGAGAGAGAGAGAGAGAGA (ssDNA) [(GA)20], CACACACACACACACACACACACACACACACACACACACA (ssDNA) [(CA)20], ATATATATATATATATATATATATATATATATATATATAT (ssDNA) [(AT)20]
